The target in test [1] is RNR β2 (Escherichia coli) (UniProt P69924). Particulars: cited from earlier work.
Test [2] has the same target. As to conditions: cited from earlier work. This is another data set of the same source.
For test [3], the target named is dansyl-β2 (C268S/C305S/V365C-β2 labeled with BADAN) (E. coli). The test is described as follows: stopped-flow fluorescence spectroscopy.
The target is the same in test [4]. As to the kind of experiment: stopped-flow fluorescence spectroscopy. The source holds these as a separate data set.
The target is the same in test [5]. As to the kind of experiment: stopped-flow fluorescence spectroscopy. This is another data set of the same source.
The target is the same in test [6]. As to the kind of experiment: stopped-flow fluorescence spectroscopy. This is another data set of the same source.
Test [7] addresses T1, His6-α2 (E. coli class Ia ribonucleotide reductase α subunit, NrdA) (E. coli, UniProt P00452 1-761).
T1 sequence (looked up): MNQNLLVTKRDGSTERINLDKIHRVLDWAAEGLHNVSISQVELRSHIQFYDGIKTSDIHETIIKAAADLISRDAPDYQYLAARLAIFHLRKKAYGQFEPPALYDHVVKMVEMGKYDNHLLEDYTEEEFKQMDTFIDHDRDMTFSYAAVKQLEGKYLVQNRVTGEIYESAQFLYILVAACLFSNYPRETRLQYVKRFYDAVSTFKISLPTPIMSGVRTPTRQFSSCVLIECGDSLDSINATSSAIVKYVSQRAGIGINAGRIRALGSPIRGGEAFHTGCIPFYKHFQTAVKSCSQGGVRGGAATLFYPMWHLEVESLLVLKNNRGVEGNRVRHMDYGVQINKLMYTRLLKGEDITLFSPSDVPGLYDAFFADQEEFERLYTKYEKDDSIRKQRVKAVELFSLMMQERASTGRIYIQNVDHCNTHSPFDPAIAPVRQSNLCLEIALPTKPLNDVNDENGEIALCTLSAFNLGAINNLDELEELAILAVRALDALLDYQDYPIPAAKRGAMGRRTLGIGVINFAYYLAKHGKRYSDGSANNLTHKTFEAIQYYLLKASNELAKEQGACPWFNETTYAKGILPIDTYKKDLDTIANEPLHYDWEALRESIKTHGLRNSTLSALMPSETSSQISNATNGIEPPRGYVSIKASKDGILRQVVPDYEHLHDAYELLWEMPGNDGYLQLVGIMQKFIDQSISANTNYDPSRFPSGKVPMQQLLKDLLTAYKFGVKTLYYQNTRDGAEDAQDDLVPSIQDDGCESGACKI
The test is described as follows: stopped-flow fluorescence spectroscopy.

Read-outs that look alike come from different tables or passages of the source.

As usually defined, the Kd is a measure of binding affinity in units of concentration. Take RNR α2 (from UniProt P00452): the values for the Kd in test [1] and in test [2] were 200 nM and 400 nM, respectively.

B1: His6-α2 (E. coli class Ia ribonucleotide reductase α subunit, NrdA) (enzyme)
chain: MNQNLLVTKRDGSTERINLDKIHRVLDWAAEGLHNVSISQVELRSHIQFYDGIKTSDIHETIIKAAADLISRDAPDYQYLAARLAIFHLRKKAYGQFEPPALYDHVVKMVEMGKYDNHLLEDYTEEEFKQMDTFIDHDRDMTFSYAAVKQLEGKYLVQNRVTGEIYESAQFLYILVAACLFSNYPRETRLQYVKRFYDAVSTFKISLPTPIMSGVRTPTRQFSSCVLIECGDSLDSINATSSAIVKYVSQRAGIGINAGRIRALGSPIRGGEAFHTGCIPFYKHFQTAVKSCSQGGVRGGAATLFYPMWHLEVESLLVLKNNRGVEGNRVRHMDYGVQINKLMYTRLLKGEDITLFSPSDVPGLYDAFFADQEEFERLYTKYEKDDSIRKQRVKAVELFSLMMQERASTGRIYIQNVDHCNTHSPFDPAIAPVRQSNLCLEIALPTKPLNDVNDENGEIALCTLSAFNLGAINNLDELEELAILAVRALDALLDYQDYPIPAAKRGAMGRRTLGIGVINFAYYLAKHGKRYSDGSANNLTHKTFEAIQYYLLKASNELAKEQGACPWFNETTYAKGILPIDTYKKDLDTIANEPLHYDWEALRESIKTHGLRNSTLSALMPSETSSQISNATNGIEPPRGYVSIKASKDGILRQVVPDYEHLHDAYELLWEMPGNDGYLQLVGIMQKFIDQSISANTNYDPSRFPSGKVPMQQLLKDLLTAYKFGVKTLYYQNTRDGAEDAQDDLVPSIQDDGCESGACKI
One may read the kon as a measure of how fast the partners come together. A lower kon goes with slower complex formation. By koff is commonly meant the first-order rate constant of dissociation. High values mean fast dissociation, low ones slow dissociation. On to B1, for which the on-rate constant (kon) amounted to 1.93e+08 M⁻¹ s⁻¹ in test [3], 1.56e+08 M⁻¹ s⁻¹ in test [4], 1.79e+08 M⁻¹ s⁻¹ in test [5] and 1.63e+08 M⁻¹ s⁻¹ in test [6]. In test [6], this molecule returned a k dissoc, faster phase of the biexponential decay (α4β4 state, with dATP) of 7 s⁻¹. In test [6], this molecule had a k dissoc, slower phase of the biexponential decay (α4β4 state, with dATP) of 0.46 s⁻¹. The molecule further gave a koff in test [6] of 109 s⁻¹.

B2: met-β2 (wt-β2 with the tyrosyl radical reduced by hydroxyurea) (enzyme, E. coli, UniProt P69924 1-376, looked up)
chain: MAYTTFSQTKNDQLKEPMFFGQPVNVARYDQQKYDIFEKLIEKQLSFFWRPEEVDVSRDRIDYQALPEHEKHIFISNLKYQTLLDSIQGRSPNVALLPLISIPELETWVETWAFSETIHSRSYTHIIRNIVNDPSVVFDDIVTNEQIQKRAEGISSYYDELIEMTSYWHLLGEGTHTVNGKTVTVSLRELKKKLYLCLMSVNALEAIRFYVSFACSFAFAERELMEGNAKIIRLIARDEALHLTGTQHMLNLLRSGADDPEMAEIAEECKQECYDLFVQAAQQEKDWADYLFRDGSMIGLNKDILCQYVEYITNIRMQAVGLDLPFQTRSNPIPWINTWLVSDNVQVAPQEVEVSSYLVGQIDSEVDTDDLSNFQL
modifications: diferric center, Y122• reduced by hydroxyurea
Regarding B2, in test [7], the binding result is given as “binds”.

The values above are taken from PMC7160020 (Biochemistry, 2020).
